Reference: PMC6786531

How the values were obtained:
[1] = target: Paclitaxel-stabilised microtubules of unlabelled porcine brain tubulin (porcine) (UniProt P02550)
[2] = target: Paclitaxel-stabilised microtubules containing 10% X-rhodamine-labelled and 10% biotin-labelled tubulin (porcine) (UniProt P02550)
[3] = target: P. falciparum kinesin-8X motor domain with C-terminal SNAPf tag, biotinylated (Pfkinesin-8X-MD-SNAP) (P. falciparum)
[4] = target: P. berghei kinesin-8X motor domain with C-terminal SNAPf tag, biotinylated (Pbkinesin-8X-MD-SNAP) (P. berghei)

Row | Substance | MT-stimulated ATPase activity, K1/2(MT) (enzyme-coupled assay, 250 nM motor domain, 0-6 uM paclitaxel-stabilised MTs, 37°C) [1] [µM] | MT-stimulated ATPase activity, Vmax (enzyme-coupled assay, 37°C) [1] [ATP/s] | MT depolymerization rate with AMPPNP (TIRF microscopy, 2.5 uM motor domain, 5 mM nucleotide, room temperature) [2] [nm/s] | MT depolymerization rate with ATP (TIRF microscopy, 2.5 uM motor domain, 5 mM nucleotide, room temperature) [2] [nm/s] | MT-stimulated ATPase activity, K1/2(MT) (enzyme-coupled assay, 250 nM motor domain, 0-6 uM paclitaxel-stabilised MTs, 26°C) [1] [µM] | MT-stimulated ATPase activity, Vmax (enzyme-coupled assay, 26°C) [1] [ATP/s] | MT gliding velocity on surface-held biotinylated motor domain (TIRF microscopy, 5 mM ATP, room temperature) [3] [nm/s] | MT gliding velocity on surface-held biotinylated motor domain (TIRF microscopy, 5 mM ATP, room temperature) [4] [nm/s]
1 | P. berghei kinesin-8X motor domain (Pbkinesin-8X-MD) (domain or fragment) | 2.2 | 2.2 | 1.8 | 4.3 |  |  |  | 
2 | P. falciparum kinesin-8X motor domain (Pfkinesin-8X-MD) (domain or fragment) |  |  | 0.3 | 0.5 | 1.3 | 6.5 |  | 
3 | Paclitaxel-stabilised microtubules containing 10% X-rhodamine-labelled tubulin (from UniProt P02550 1-451) (complex) |  |  |  |  |  |  | 3.7 | 17.8
